This passage reports protein stability index results from the supplement of paper PMC10567573.

The nature of this data set: protein stability index of a GFP-peptide fusion (GPS, HEK-293T) (PSI 1-6); higher = more stable.
Where [1] appears, read: treatment: DMSO, c terminus: a fixed tail appended.
The mark [2] stands for this setting: treatment: MLN4924 1 uM, 8 h, c terminus: a fixed tail appended.

± gives the standard deviation.
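Also: 24-mer peptide tiles fused after GFP, lentivirally expressed, FACS-sorted into six equal bins by GFP/DsRed ratio, decoded by Illumina sequencing, PSI is the read-weighted mean bin number.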

As for LHTAREFSEEDEEETTSQDWGTPR [RTN2], the protein stability index runs as follows: under setting [1], 5.4 ± 0.27; under setting [2], 5.46 ± 0.23.

With LIDYKSYMDTKLLVARFLEQSSCT [FAM189A2], the protein stability index runs as follows: under setting [1], 2.38 ± 0.091; under setting [2], 2.25 ± 0.19. For LIVGLQGMDLNLEAEALAGTGLVL [HDAC6], the protein stability index reads like this: under setting [1], 2.91 ± 0.48; under setting [2], 2.6 ± 0.62. With LKAEELLLKIHEVSTVSHADADCF [CASP6], the protein stability index runs as follows: under setting [1], 3.03 ± 0.15; under setting [2], 3.14 ± 0.28.

In the case of LKDNPLDPVLAKVAGDCLDEKQCK [LRRC59], the protein stability index worked out at 5.13 ± 0.44 under setting [1] and 5.19 ± 0.27 under setting [2].

For LKGGLQEVAEQLELERIGPQHQAG [CNOT7], the protein stability index stood at 4.67 ± 0.14 under setting [1] and 4.94 ± 0.22 under setting [2].

Turning to LKNHFQSVLEQLELQEKQKNEKLI [TAF7L], the protein stability index turned out to be 2.82 ± 0.12 under setting [1] and 2.95 ± 0.22 under setting [2]. In the same order, the values of LKNIRHRPGGGRVKIESVKLDFKE [MAP2] are 3.22 ± 0.29 and 3.52 ± 0.38. In the same order, the values of LKVVHELPACTLCAGPLEDAVTIP [TRIM15] are 2.76 ± 0.13 and 3.15 ± 0.26.

LLFEYPESSSPARGIAIVSVLVIL [KCNA4]: the protein stability index came out at 2.92 ± 0.2 under setting [1] and 3 ± 0.36 under setting [2]. In the same order, the values of LLGLGVLLFSGGLSESETGPMEEV [PBXIP1] are 2.22 ± 0.062 and 2.32 ± 0.31. In the same order, the values of LLNAASTVARPVFTEYQASAFGNV [RHOBTB3] are 2.48 ± 0.21 and 2.72 ± 0.31. For the sequence LLPYFYIIYMAILLTHRCLRDEHR [DHCR7], the protein stability index came to 3.25 ± 0.52 under setting [1] and 3.05 ± 0.2 under setting [2]. In the same order, the values of LLQKYNMQFLIRSHECKPEGYEFC [PPEF2] are 2.5 ± 0.84 and 2.27 ± 0.49. Take LLSQEKLQEQHLSSPQGVQLDIAS [BCL2L13]: the protein stability index by setting is: under setting [1], 4.45 ± 0.14; under setting [2], 4.36 ± 0.15.

In the case of LLVQDATPVSNSLLPEKAFSDIPS [GFOD1], the protein stability index is 3.35 ± 0.24 under setting [1] and 3.37 ± 0.22 under setting [2]. In the case of LNGYRLGERVLQVSFKTSKQHKA [ELAVL3], the protein stability index reads like this: (treatment: DMSO, c terminus: native) 3.16 ± 0.29; (treatment: MLN4924 1 uM, 8 h, c terminus: native) 2.69 ± 0.42. For LNSVERYDPKTNQWSSDVAPTSTC [KLHL20], the protein stability index reads like this: under setting [1], 4.18 ± 0.097; under setting [2], 4.24 ± 0.43.

Take LPCTSRCPRPCRESAFKLSTGTSR [SCNN1D]: the protein stability index turned out to be 2.64 ± 0.99 under setting [1] and 2.9 ± 0.38 under setting [2]. Take LPCVVQEGAIVMARGRHVGSSETN [PYCR3]: the protein stability index under setting [1] amounted to 4.42 ± 0.36. As for LPGPKGDDGKLGATGPMGMRGFKG [SCARA5], the protein stability index is, setting by setting: under setting [1], 4.7 ± 0.46; under setting [2], 4.48 ± 0.2.

The sequence LPLSHIAAQMMDIWVPIKIGALTY [ACSBG2] came in with a protein stability index under setting [1] of 2.79 ± 0.76 and a protein stability index under setting [2] of 2.73 ± 0.82. In the same order, the values of LQDLQVTDILPQMITLSEAYIQIW [USP39] are 2.58 ± 0.54 and 2.55 ± 0.77.

With LQHTQELFPQWHLPIKIAAIIASL [STEAP1], the protein stability index is, setting by setting: under setting [1], 2.16 ± 0.35; under setting [2], 2.1 ± 0.24.

The sequence LQLKQELAMLNAVTEDLRLKDWEH [SCARA5] returned a protein stability index under setting [1] of 3.36 ± 0.046 and a protein stability index under setting [2] of 3.34 ± 0.24. In the same order, the values of LQNEVPPQPDPVFLEALSSRYLGD [SERTAD3] are 4.32 ± 0.15 and 4.25 ± 0.14. In the same order, the values of LQSCQAEIIELRRTVNALEIELQA [KRT34] are 2.15 ± 0.45 and 2.11 ± 0.29.

As to LQSGQEYVFFVLAVMEHAESKMYA [PTPRD], the protein stability index runs as follows: under setting [1], 2.4 ± 0.63; under setting [2], 2.51 ± 0.75. Regarding LRHSFQKQQREKTRWLNSGRGDEA [ADD1], the protein stability index by setting is: under setting [1], 3.63 ± 0.5; under setting [2], 3.92 ± 0.35.
